Test [1] has as its target His-tagged recombinant human EGFR extracellular domain (Homo sapiens) (UniProt P00533). Put plainly: high-speed atomic force microscopy.
Test [2] concerns the target Recombinant human MET extracellular domain (Homo sapiens) (UniProt P08581). Put plainly: high-speed atomic force microscopy.

As to Amivantamab (bispecific antibody), the percent of the observation period with both EGFR and MET bound to amivantamab in test [1] and in test [2] was 78% throughout. Moreover, the percent of the observation period bound in test [2] came out at 87%.
